We go through 2 molecules from patent US8591913B2, “Methods of decreasing adipose tissue” (Toru Miyazaki, priority 2009, dated 2013).

Data set [1] addresses T1, endogenous FAS (Mus musculus, UniProt P19096).
T1 construct: from tissue; host or cells: epididymal adipose tissue of obese AIM-/- mice
Put plainly: Co-precipitation of endocytosed HA-tagged rAIM with endogenous FAS from adipose tissue lysates. In kind it is binding. The following applies: HA-tagged rAIM injected into AIM-/- mice, adipose tissue lysate, anti-HA antibody, Western blotting for FAS. As to the method: Further, the endocytosed rAIM was precipitated using lysates derived from those adipose tissues to examine whether endogenous FAS was co-precipitated or not. That is, the presence of FAS in the precipitate was analyzed by Western blotting using HA-tagged rAIM and an anti-HA antibody.
It was confirmed that AIM was bound to FAS both in vivo and in vitro. That is, mouse rAIM tagged with HA in a total amount of 100 μg was directly injected in several sites in the epididymal adipose tissue in the obese AIM^−/− mouse. At 3 hours after the injection, the epididymal adipose tissues were collected. Then, endocytosed rAIM was precipitated from a lysate of the adipose tissues using an anti-HA antibody. Then, it was analyzed by immunoblotting (WB) whether FAS was present in the resulting precipitate.
Background: Immunoblotting shows a protein as a band on a membrane.

Data set [2] concerns FAS domains. Kind of data set: Co-immunoprecipitation of FLAG-tagged FAS regions with HA-tagged AIM in HEK293T cells. It is filed as binding. The following applies: HA-tagged mouse AIM. From the text:
Further, it was attempted to map a binding region of FAS to AIM. FAS has the following distinct seven functional domains, i.e., ketoacyl synthase (KS), malonyl/acetyl transferase (MAT), dehydrase (DH), enoylreductase (ER), ketoreductase (KR), acyl carrier protein (ACP), and thioesterase (TE), as illustrated in FIG. 34A. There is a central core (CC) between the DH domain and the ER domain. It is believed that the central core has no known catalytic function and plays a structural role in stabilization of the dimer. FIG. 34A illustrates FAS dimerized through head-to-tail interaction and major functions of its respective regions.
Thus, an association of each region in FAS tagged with FLAG with AIM tagged with HA was examined by a co-precipitation study. That is, each domain from FAS tagged with FLAG at the N terminus was expressed in HEK293T cells in which mouse AIM tagged with HA was stably expressed. Then, the association of each region with AIM was examined by a co-immunoprecipitation study using an anti-FLAG antibody and an anti-HA antibody. However, AIM was not bound to an N terminal region including the KS and MAT domains (see FIG. 34A) involved in initial acyl chain assembly (i.e., condensation of acetyl group and malonyl group to 3-ketobutyryl-ACP associated with release of carbon dioxide). Therefore, it was thought that AIM affected elongation of a fatty acid chain (which involves ER and DH) and the release of synthesized palmitate (which depends on TE). Over-expression of ER or KR led to death of many cells. This caused the reduction of the signals in WB using the cell lysates of them [lower panel in FIG. 34B, lanes: ER and KR).

Data set [3] has as its target T2, FAS (Mus musculus, UniProt P19096).
T2 construct: cell lysates were prepared, and the enzyme activity of FAS was measured; endogenous in cells; host or cells: 3T3-L1 cells (differentiating or differentiated)
Put plainly: FAS enzyme activity in lysates of loaded 3T3-L1 cells (malonyl-CoA consumption). It is filed as cell-based. The note with it: mouse AIM 5 μg/mL. The procedure: Whether AIM affected an enzyme activity of FAS or not was examined.
In addition, as a schedule (f) similar to the above-mentioned schedule (e), AIM was loaded for 4 days (day 8 to day 12) after the 3T3-L1 cells differentiated, subsequently the cells were collected on the 10th day (day 12) after the initiation of the differentiation induction, cell lysates were prepared, and the enzyme activity of FAS was measured. The enzyme activity of FAS was measured based on a consumption amount of malonyl-CoA.
In addition, using a FAS inhibitor (C75) in place of AIM, the FAS inhibitor at a concentration of 25 μM was loaded according to the schedules (d) and (f), and as was the case with the above-mentioned AIM, the cells were collected on the 2nd day (day 4: schedule (d)) and 10th day (day 12: schedule (f)) after the initiation of the differentiation induction, and the enzyme activity of FAS was measured.
Further, for comparison, the cells cultured without loading AIM in the above-mentioned schedule (a) were also collected at times of the 2nd day (day 4) and 10th day (day 12) after the initiation of the differentiation induction, and the enzyme activity of FAS was measured.
FIG. 11B and FIG. 11C illustrate the results of measuring the FAS enzyme activity (Fatty acid synthase activity) (nmol NADPH/min/mg protein). FIG. 11B illustrates the results obtained on the 2nd day (day 4) after the initiation of the differentiation induction in the case of loading no AIM according to the schedule (a) (None), the case of loading AIM according to the schedule (d) (AIM (5 μg/mL)), and the case of loading the FAS inhibitor according to the schedule (d) (C75 (25 μM)). FIG. 11C illustrates the results obtained on the 10th day (day 12) after the initiation of the differentiation induction in the case of loading no AIM according to the schedule (a) (None), the case of loading AIM according to the schedule (f) (AIM (5 μg/mL)), and the case of loading the FAS inhibitor according to the schedule (f) (C75 (25 μM)).

T2 sequence (P19096 whole entry): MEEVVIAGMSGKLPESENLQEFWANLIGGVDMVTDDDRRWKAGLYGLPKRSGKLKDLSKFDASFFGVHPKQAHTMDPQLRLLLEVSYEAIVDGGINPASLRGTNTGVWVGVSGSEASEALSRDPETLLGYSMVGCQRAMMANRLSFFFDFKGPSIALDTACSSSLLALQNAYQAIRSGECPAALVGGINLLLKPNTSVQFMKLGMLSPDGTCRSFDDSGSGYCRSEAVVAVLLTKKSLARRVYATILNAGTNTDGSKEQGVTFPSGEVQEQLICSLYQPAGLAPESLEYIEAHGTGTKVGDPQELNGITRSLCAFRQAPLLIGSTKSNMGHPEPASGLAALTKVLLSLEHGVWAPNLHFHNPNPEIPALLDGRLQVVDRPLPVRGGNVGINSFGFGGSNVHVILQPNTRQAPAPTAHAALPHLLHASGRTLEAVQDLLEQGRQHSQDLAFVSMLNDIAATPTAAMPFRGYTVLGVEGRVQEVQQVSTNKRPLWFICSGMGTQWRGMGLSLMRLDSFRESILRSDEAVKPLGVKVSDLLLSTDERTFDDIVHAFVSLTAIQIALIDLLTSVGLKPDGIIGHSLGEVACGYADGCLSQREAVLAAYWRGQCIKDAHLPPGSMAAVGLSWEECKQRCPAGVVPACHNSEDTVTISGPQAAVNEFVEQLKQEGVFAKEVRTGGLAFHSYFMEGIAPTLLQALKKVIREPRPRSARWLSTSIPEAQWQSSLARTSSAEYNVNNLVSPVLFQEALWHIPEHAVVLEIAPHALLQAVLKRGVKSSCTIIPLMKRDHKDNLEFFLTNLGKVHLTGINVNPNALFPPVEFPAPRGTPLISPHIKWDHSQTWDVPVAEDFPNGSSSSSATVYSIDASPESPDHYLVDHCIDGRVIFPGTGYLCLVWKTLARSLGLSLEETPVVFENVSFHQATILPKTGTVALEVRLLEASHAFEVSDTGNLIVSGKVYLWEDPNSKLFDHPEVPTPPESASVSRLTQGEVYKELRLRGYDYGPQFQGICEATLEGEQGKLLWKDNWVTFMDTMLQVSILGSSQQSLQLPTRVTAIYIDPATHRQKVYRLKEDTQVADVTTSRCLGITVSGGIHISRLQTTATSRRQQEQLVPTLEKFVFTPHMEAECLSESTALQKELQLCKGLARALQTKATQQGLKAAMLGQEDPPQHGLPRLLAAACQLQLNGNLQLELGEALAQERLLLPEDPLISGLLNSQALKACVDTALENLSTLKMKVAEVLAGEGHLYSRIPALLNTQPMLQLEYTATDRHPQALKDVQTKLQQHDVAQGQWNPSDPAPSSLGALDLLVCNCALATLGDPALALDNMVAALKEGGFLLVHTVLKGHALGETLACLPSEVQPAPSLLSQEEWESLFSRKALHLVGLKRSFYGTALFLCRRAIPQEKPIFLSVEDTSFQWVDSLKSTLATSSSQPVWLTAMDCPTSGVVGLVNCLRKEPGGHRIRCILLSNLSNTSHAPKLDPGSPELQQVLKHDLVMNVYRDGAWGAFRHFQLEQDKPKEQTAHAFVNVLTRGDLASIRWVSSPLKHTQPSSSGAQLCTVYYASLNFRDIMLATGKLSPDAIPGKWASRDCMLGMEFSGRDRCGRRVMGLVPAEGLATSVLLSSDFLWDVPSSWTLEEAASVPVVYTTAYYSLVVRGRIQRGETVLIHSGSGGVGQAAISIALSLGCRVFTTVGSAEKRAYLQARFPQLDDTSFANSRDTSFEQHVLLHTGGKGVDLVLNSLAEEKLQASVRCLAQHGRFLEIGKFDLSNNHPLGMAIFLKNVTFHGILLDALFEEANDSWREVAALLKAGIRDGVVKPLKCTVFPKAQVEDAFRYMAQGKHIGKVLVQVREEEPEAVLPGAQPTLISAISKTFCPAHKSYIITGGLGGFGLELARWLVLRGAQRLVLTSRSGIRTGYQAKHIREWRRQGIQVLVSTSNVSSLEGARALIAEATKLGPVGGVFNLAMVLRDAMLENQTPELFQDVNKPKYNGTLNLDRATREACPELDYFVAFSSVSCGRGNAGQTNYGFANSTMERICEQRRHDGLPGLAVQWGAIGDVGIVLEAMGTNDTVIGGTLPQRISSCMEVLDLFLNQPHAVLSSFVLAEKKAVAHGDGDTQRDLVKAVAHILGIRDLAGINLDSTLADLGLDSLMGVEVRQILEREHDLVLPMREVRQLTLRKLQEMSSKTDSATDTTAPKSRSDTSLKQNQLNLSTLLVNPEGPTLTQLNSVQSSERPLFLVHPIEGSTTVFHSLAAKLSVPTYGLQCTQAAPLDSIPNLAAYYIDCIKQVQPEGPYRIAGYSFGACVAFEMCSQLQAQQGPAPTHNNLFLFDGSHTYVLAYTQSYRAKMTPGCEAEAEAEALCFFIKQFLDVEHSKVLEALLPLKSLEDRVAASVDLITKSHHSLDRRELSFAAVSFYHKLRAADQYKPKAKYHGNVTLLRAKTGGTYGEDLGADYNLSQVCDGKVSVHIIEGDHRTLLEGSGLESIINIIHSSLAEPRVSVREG
T1 sequence (P19096 whole entry): as above

B1: mouse AIM: protein consisting of the amino acid sequence shown in SEQ ID NO: 5; recombinant, purified from HEK293T culture supernatant (protein)
chain: MAPLFNLMLAILSIFVGSCFSESPTKVQLVGGAHRCEGRVEVEHNGQWGTVCDDGWDRRDVAVVCRELNCGAVIQTPRGASYQPPASEQRVLIQGVDCNGTEDTLAQCELNYYVFDCSHEEDAGAQCENPDSDLLFIPEDVRLVDGPGHCQGRVEVLHQSQWSTVCKAGWNLQVSKVVCRQLGCGRALLTYGSCNKNTQGKGPIWMGKMSCSGQEANLRSCLLSRLENNCTHGEDTWMECEDPFELKLVGGDTPCSGRLEVLHKGSWGSVCDDNWGEKEDQVVCKQLGCGKSLHPSPKTRKIYGPGAGRIWLDDVNCSGKEQSLEFCRHRLWGYHDCTHKEDVEVICTDFDV
modifications: mouse
notes: recombinant, purified from HEK293T culture supernatant
In the case of B1, the “co-precipitation of endocytosed rAIM and endogenous FAS” value in data set [1] was “co-precipitated”.

B2: AIM: apoptosis inhibitor of macrophage, secretory protein with three SRCR domains; recombinant mouse and human AIM in Example 2, mouse AIM in Examples 3-16 (protein)
chain: ESPTKVQLVGGAHRCEGRVEVEHNGQWGTVCDDGWDRRDVAVVCRELNCGAVIQTPRGASYQPPASEQRVLIQGVDCNGTEDTLAQCELNYYVFDCSHEEDAGAQCENPDSDLLFIPEDVRLVDGPGHCQGRVEVLHQSQWSTVCKAGWNLQVSKVVCRQLGCGRALLTYGSCNKNTQGKGPIWMGKMSCSGQEANLRSCLLSRLENNCTHGEDTWMECEDPFELKLVGGDTPCSGRLEVLHKGSWGSVCDDNWGEKEDQVVCKQLGCGKSLHPSPKTRKIYGPGAGRIWLDDVNCSGKEQSLEFCRHRLWGYHDCTHKEDVEVICTDFDV
As to B2, in data set [2] (FLAG-tagged domain), the “binding to the CC (central core) domain of FAS” value is on record as “specifically bound”, the “binding to the DH domain of FAS” value was “specifically bound”, the “binding to the ER domain of FAS” value is listed as “specifically bound” and the “binding to the TE domain of FAS” value is on record as “specifically bound”. Further, the “binding to the N terminal region of FAS including the KS and MAT domains” value in data set [2] (FLAG-tagged region) was “not bound”. Moreover, the “enzyme activity of FAS” value in data set [3] (schedule (d): day 2 to day 4, cells collected day 4, compared with no AIM) is “remarkably reduced”. For the same molecule, the “enzyme activity of FAS” value in data set [3] (schedule (f): day 8 to day 12, cells collected day 12, compared with no AIM) is reported as “remarkably reduced”.
